Experimental data as given in paper PMC4031514, “Lysine 27 Ubiquitination of the Mitochondrial Transport Protein Miro Is Dependent on Serine 65 of the Parkin Ubiquitin Ligase*” (The Journal of Biological Chemistry, 2014).

Molecular target: T1, GFP-TRAK1 (mouse, UniProt Q6PD31 1-939)
T1 construct: TRAK1, mouse; also called kinesin adaptor TRAK1
T1 sequence (looked up): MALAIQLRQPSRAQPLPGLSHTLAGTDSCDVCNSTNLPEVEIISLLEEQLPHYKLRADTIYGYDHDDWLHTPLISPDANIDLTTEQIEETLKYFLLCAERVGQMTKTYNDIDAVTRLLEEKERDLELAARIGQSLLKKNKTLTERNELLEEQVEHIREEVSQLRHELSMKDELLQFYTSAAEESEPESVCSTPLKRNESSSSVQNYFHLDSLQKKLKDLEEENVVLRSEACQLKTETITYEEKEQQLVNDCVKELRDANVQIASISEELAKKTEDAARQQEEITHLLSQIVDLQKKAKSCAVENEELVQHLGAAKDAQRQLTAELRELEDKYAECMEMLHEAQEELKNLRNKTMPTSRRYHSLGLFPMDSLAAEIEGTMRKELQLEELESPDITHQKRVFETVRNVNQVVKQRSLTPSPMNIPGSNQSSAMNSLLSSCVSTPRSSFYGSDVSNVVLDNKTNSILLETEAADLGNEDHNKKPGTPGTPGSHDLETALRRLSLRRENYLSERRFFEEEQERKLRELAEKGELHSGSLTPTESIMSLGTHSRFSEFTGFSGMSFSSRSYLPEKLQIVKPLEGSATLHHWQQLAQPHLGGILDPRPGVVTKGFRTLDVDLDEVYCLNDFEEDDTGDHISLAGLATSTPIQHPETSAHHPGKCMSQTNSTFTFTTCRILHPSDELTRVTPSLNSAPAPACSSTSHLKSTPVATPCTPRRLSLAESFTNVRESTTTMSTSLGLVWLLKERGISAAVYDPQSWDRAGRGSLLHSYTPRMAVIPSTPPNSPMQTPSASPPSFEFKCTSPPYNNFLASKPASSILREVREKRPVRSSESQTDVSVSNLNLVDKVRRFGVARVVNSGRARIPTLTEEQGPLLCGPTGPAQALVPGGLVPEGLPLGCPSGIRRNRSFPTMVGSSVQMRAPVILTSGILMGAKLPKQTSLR
Assay: co-IP; coimmunopurification of mycMiro1 and GFP-TRAK1 from transfected cells, untreated or treated with 10 uM FCCP, 1 h; GFP-TRAP beads per the methods; lysis in 50 mM Tris pH 7.4, 150 mM NaCl, 1 mM EDTA, 0.5% Triton X-100; western blot, densitometry
Details: partners not purified

B1: Myc-tagged Miro1 (natural protein, UniProt Q8IXI2 1-618, looked up)
chain: MKKDVRILLVGEPRVGKTSLIMSLVSEEFPEEVPPRAEEITIPADVTPERVPTHIVDYSEAEQSDEQLHQEISQANVICIVYAVNNKHSIDKVTSRWIPLINERTDKDSRLPLILVGNKSDLVEYSSMETILPIMNQYTEIETCVECSAKNLKNISELFYYAQKAVLHPTGPLYCPEEKEMKPACIKALTRIFKISDQDNDGTLNDAELNFFQRICFNTPLAPQALEDVKNVVRKHISDGVADSGLTLKGFLFLHTLFIQRGRHETTWTVLRRFGYDDDLDLTPEYLFPLLKIPPDCTTELNHHAYLFLQSTFDKHDLDRDCALSPDELKDLFKVFPYIPWGPDVNNTVCTNERGWITYQGFLSQWTLTTYLDVQRCLEYLGYLGYSILTEQESQASAVTVTRDKKIDLQKKQTQRNVFRCNVIGVKNCGKSGVLQALLGRNLMRQKKIREDHKSYYAINTVYVYGQEKYLLLHDISESEFLTEAEIICDVVCLVYDVSNPKSFEYCARIFKQHFMDSRIPCLIVAAKSDLHEVKQEYSISPTDFCRKHKMPPPQAFTCNTADAPSKDIFVKLTTMAMYPHVTQADLKSSTFWLRASFGATVFAVLGFAMYKALLKQR
notes: Miro1, outer mitochondrial membrane GTPase; also called mycMiro1
  co-IP with FCCP relative to untreated control (1): 0.94 fold of control
